The data set concerns O=C(O)/C=C\Cl. As to the kind of experiment: purified protein. As to conditions: active site.

As a reminder, the Km is the concentration of substrate that gives half-maximal velocity. The term kcat denotes the maximal rate divided by the concentration of active sites. As usually defined, the kcat/Km is the second-order rate constant that governs catalysis at low substrate concentration. For “cis-3-chloroacrylic acid dehalogenase (cis-CaaD) (coryneform bacterium)”, the Michaelis-Menten constant (Km) was determined as 200 ± 15 µM, the kcat is 5.9 ± 0.1 s⁻¹ and the specificity constant (kcat/Km) stood at 29000 M⁻¹ s⁻¹.

Values taken from article PMC2790542.
